Read-outs that look alike come from different tables or passages of the source.

Assay [1] concerns the target NOPLight (human (NOPR part)). Description: sensor fluorescence kinetics.
For assay [2], the target named is NOPLight (human (NOPR part)). Description: other fluorescence titration.
The target in assay [3] is NOPLight (human (NOPR part)). Description: other fluorescence titration. The source holds these as a separate data set.
The target of assay [4] is NOPLight (human (NOPR part)). Description: other fluorescence titration. This is another data set of the same source.
In assay [5] the target is NOPLight (human (NOPR part)). Nature of the assay: sensor fluorescence in brain slices.

Broadly, the EC50 is the midpoint of the concentration-response curve. A lower EC50 goes with a more potent agent. Substance “Nociceptin/orphanin-FQ peptide (from UniProt Q13519 130-146)” returned a τON (time constant of signal activation) in assay [1] of 595 ms. In addition, the results for the concentration giving a half-maximal response (EC50) in assay [2] and in assay [4] were 28.6 nM and 42.8 nM, respectively. The ΔF/F0 upon N/OFQ is 388% in assay [2] and 378% in assay [3].

In assay [5], “endogenous N/OFQ released from PNOC neurons (peptide)” returned a F/F0 upon CNO-evoked release of 1.6%.

These data come from paper PMC10245933.
